In paper PMC4890606 (Molecular cell, 2016):
Each block holds one binder with its values, some of them ahead of it.

What was measured:
[1] = target: T1, Mit1 C-terminal domain (1156–1417) (S. pombe, UniProt Q9P793 1156-1417); test: pull-down
T1 sequence (looked up): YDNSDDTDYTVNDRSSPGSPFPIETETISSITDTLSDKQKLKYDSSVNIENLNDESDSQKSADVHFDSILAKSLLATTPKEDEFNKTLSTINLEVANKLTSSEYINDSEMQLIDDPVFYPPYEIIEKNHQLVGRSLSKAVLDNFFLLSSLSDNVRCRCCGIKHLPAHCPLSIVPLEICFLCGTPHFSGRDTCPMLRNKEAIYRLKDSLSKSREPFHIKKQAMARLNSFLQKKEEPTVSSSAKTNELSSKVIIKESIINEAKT

[2] = target: the molecule itself

binding result [1]: binds
B1: Clr1 region between residues 357–500 (domain or fragment, S. pombe, UniProt O74808 357-500, looked up)
chain: PFLTPDNIASSILYSTASFSRSKPDRPRLNLSLELKLMQNELNKGQLKKQFKGDLRNLADWNNLSLVSSKFPSLPITNLRPDGSFLKHRRFNEEIAYNRQTLEKAIKQLDLSPDKVIQLREQNGVAVNGRVCYPTRNKHSEISA

B2: Clr3 (aa31–687) (enzyme, S. pombe, UniProt P56523 31-687, looked up)
chain: TNNKPMSGSENTLNNESHEMSQILKKSGLCYDPRMRFHATLSEVDDHPEDPRRVLRVFEAIKKAGYVSNVPSPSDVFLRIPAREATLEELLQVHSQEMYDRVTNTEKMSHEDLANLEKISDSLYYNNESAFCARLACGSAIETCTAVVTGQVKNAFAVVRPPGHHAEPHKPGGFCLFNNVSVTARSMLQRFPDKIKRVLIVDWDIHHGNGTQMAFYDDPNVLYVSLHRYENGRFYPGTNYGCAENCGEGPGLGRTVNIPWSCAGMGDGDYIYAFQRVVMPVAYEFDPDLVIVSCGFDAAAGDHIGQFLLTPAAYAHMTQMLMGLADGKVFISLEGGYNLDSISTSALAVAQSLLGIPPGRLHTTYACPQAVATINHVTKIQSQYWRCMRPKHFDANPKDAHVDRLHDVIRTYQAKKLFEDWKITNMPILRDSVSNVFNNQVLCSSNFFQKDNLLVIVHESPRVLGNGTSETNVLNLNDSLLVDPVSLYVEWAMQQDWGLIDINIPEVVTDGENAPVDILSEVKELCLYVWDNYVELSISKNIFFIGGGKAVHGLVNLASSRNVSDRVKCMVNFLGTEPLVGLKTASEEDLPTWYYRHSLVFVSSSNECWKKAKRAKRRYGRLMQSEHTETSDMMEQHYRAVTQYLLHLLQKARPTSQ
stoichiometry N [2]: 2
